Assay [1] addresses CHIP-TPR domain (HsCHIP 21-154) (human) (UniProt Q9UNE7). The experiment in a line: NMR titration.
For assay [2], the target named is T1, CHIP-TPR domain (HsCHIP 21-154) (human, UniProt Q9UNE7 21-154).
T1 sequence (looked up): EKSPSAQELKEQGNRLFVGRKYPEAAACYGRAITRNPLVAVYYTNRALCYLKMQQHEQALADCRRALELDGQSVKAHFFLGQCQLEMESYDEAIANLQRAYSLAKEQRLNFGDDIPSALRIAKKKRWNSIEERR
Description: crystal structure.

In assay [1], “Hsc70-lid-tail-ΔGPTIEEVD (domain or fragment)” showed a Kd of more than 100 µM.

B1: HsHsc70_(541-646)Δ_(626-638) (domain or fragment, human, UniProt P11142 541-646, looked up)
chain: SLESYAFNMKATVEDEKLQGKINDEDKQKILDKCNEIINWLDKNQTAEKEEFEHQQKELEKVCNPIITKLYQSAGGMPGGMPGGFGPTIEEVD
In the case of B1, the binding result in assay [2] is “binds”.

The values above are taken from PMC4351142 (Structure (London, England : 1993), 2015).
